# Source: patent publication US20260258115A1 (MAPP BIOPHARMACEUTICAL, published 2026)
# Where a chain is given by its changes, count along the chain named.
# B1: ADI-14340 (antibody, V domains shown)
# VH: EVQLVESGGGLVKPGGSLRLSCAASGFTLSSYTMNWVRQAPGRGLEWVSSIYSTSSYIYYADSVKGRFTISRDNAKNSLYLQMNSLRAEDTAVYYCARDSQAVTGTDLYFDSWGQGTLVTVSS
# VL: QPGLTQPPSVSVAPGKTARITCGGNNIGRKNVHWYQQKPGQAPILVIYYDSDRPSGIPERFSGSNSGNTATLTISRVEDGDEADYYCQVWDSSNDHVIFGGGTQLTVL
# notes: full-length IgG; also called Ab 8
# B2: ADI-14337 (antibody, V domains shown)
# VH: EVQLVESGGGLVKPGGSLRLSCAASGFTFSSYSMNWVRQAPGKGLEWVSSISSSSSYIYYADSVKGRFTISRDNAKNSLYLQMNSLRAEDTAVYYCAREYYDSSGYTNWFDPWGQGTLVTVSS
# VL: QPVLTQPPSVSGAPGQRVTISCTGSSSNIGAGYDVHWYQQLPGTAPKLLIYGNSNRPSGVPDRFSGSKSGTSASLAITGLQAEDEADYYCQSYDSSLAWVFGGGTQLTVL
# notes: full-length IgG; also called Ab 5
# B3: ADI-14346 (antibody, V domains shown)
# VH: EVQLLESGGGLVKPGGSLRLSCAASGFRFSSYSMNWVRQAPGKWLEWVSSISASSSYTDYADSVKGRFTISRDNAKNSLYLQMNSLRAEDTAVYYCAREDYLSSGSLLHWFDPWGQGTLVTVSS
# VL: B2 VL with S54N, S96R, A98S, W99V, V100L, Q106K, L107V
# notes: full-length IgG; also called Ab 14
# B4: ADI-25555 (antibody, V domains shown)
# VH: QVQLVQSGGGLVKPGGSLRLSCAASGFTFSSYSMNWVRQAPGKGLEWVSSISSSSSYIYYADSVKGRFTISRDNAKNSLYLQMNSLRAEDTAVYYCARQRGGIAVAGTYFDLWGRGTLVTVSS
# VL: QPVLTQPPSVSGAPGQRVTISCTGSSSNIGAGYDVHWYQQLPGTAPKLLIYGNSNRPSGVPDRFSGSKSGTSASLAITGLQAEDEADYYCQSYDSTVVFGGGTKLTVL
# notes: full-length IgG
# B5: ADI-25562 (antibody, V domains shown)
# VH: QVQLVESGGGLVKPGGSLRLSCAASGFTFSDYYMSWIRQAPGKGLEWVSYISSSSSYTNYADSVKGRFTISRDNAKNSLYLQMNSLRAEDTAVYYCARVGYSSSWYNYFDYWGQGTLVTVSS
# VL: SYVLTQPPSVSGAPGQRVTISCTGSSSNIGAGYDVHWYQQLPGTAPKLLIYGNSNRPSGVPDRFSGSKSGTSASLAITGLQAEDEADYYCQSYDSSLSGPVFGGGTKLTVL
# notes: full-length IgG; also called Ab 453
# B6: ADI-19420 (antibody, V domains shown)
# VH: EVQLLESGGGLVKPGGSLRLSCAASGFTFSSYSMNWVRQAPGKGLEWVSSISSSSSYIYYADSVKGRFTISRDNAKNSLYLQMNSLRAEDTAVYYCARVGWGYSYGYWFDPWGQGTLVTVSS
# VL: B5 VL with S1Q, Y2S, P100V
# notes: full-length IgG
# B7: ADI-14357 (antibody, V domains shown)
# VH: EVQLVESGGGVVQPGRSLRLSCAASGFTFSNYAMHWVRQAPGKGLEWVSIISYDGSNKYYADSVKGRFTISRDNSKNTLYLQINSLRTEDTAVYYCARARKRIPIVVVTAPYYYGMDVWGQGTTVTVSS
# VL: DIRVTQSPSSLSASVGDRVTITCRASQSISSYLHWYQQQPGKAPNLLIYAASNLQSGVPSRFSGSGSGTDFTLTISSLQPEDFATYYCQQSYTTPHTFGQGTKVEIK
# notes: full-length IgG; also called Ab 25
# B8: ADI-25567 (antibody, V domains shown)
# VH: QVQLQQWGAGLLKPSETLSLTCAVYGGSFSGYYWSWIRQPPGKGLEWIGEINHSGSTNYNPSLKSRVTISVDTSKNQFSLKLSSVTAADTAVYYCARGLPRFGVVTPNWFDPWGQGTLVTVSS
# VL: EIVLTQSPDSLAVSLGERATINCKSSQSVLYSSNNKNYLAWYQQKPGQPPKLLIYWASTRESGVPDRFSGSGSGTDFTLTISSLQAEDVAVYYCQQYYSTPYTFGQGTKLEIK
# notes: full-length IgG
# B9: ADI-14344 (antibody, V domains shown)
# VH: QVQLVQSGGGLVQPGGSLRLSCAASGFTFRTYALSWVRQAPGKGLEWVSSILGSGGSTYYADSVKGRFTISRDNSKNTLYLQLNSLRAEDTAVYFCAKLAVAGLLHHYYGLDVWGQGTTVTVSS
# VL: SYELTQPPSVSVSPGQTASITCSGDKLENKYACWYQQKPGQSPVLLIYQDTKRPSGIPERFSGSNSGTTATLTISGTQALDEADYYCQAWDSSTASVLFGGGTQLTVL
# notes: full-length IgG; also called Ab 12
# B10: ADI-14367 (antibody, V domains shown)
# VH: EVQLLESGGGLVQPGGSLRLSCAASGFTFGSYDMNWVRQAPGKGLEWVSGISGSGDATYYADSVKGRFTISRDNSKNMLYLQMNSLSAEDMAVYYCARDRAFTMKYNSNWYKIYWGQGTMVTVSS
# VL: EIVLTQSPGTLSLSPGERATLSCRASQSVTSSYLAWYQQKPGQAPRLLIYGAFSRATGIPDRFSGSGSGTDFTLTISRLEPEDFAVYYCHHYGTSRWTFGQGTKVDIK
# notes: full-length IgG; also called Ab 35
# B11: ADI-14345 (antibody, V domains shown)
# VH: QITLKESGAEVKKPGASVKVSCKVSGYTLSDFSMHWVRQAPGKGLEWMGSFDPEDGETVDAQKFQGRVTMTEDRSTATAYMELRSLRSEDTAVYYCGTPASAGQVDYWGQGTLVTVSS
# VL: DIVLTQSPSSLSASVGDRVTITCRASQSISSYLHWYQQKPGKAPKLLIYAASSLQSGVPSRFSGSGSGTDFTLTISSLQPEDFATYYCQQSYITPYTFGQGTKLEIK
# notes: full-length IgG; also called Ab 13
# B12: ADI-19421 (antibody, V domains shown)
# VH: EVQLLESGGGVVQPGRSLRLSCAASGFTFSSYGMHWVRQAPGKGLEWVAVISYDGSNKYYADSVKGRFTISRDNSKNTLYLQMNSLRAEDTAVYYCAKDIHHVLRFLDPDYWGQGTLVTVSS
# VL: QSVLIQPASVSGFPGQSITISCTGTSSDVGGYNYVSWYQQHPGKAPKLMIYEVSNRPSGVSNRFSGSKSGNTASLTISGLQAEDEADYYCSSYTSSSTLVFGGGTKLTVL
# notes: full-length IgG
# B13: ADI-14364 (antibody, V domains shown)
# VH: QVQLVQSGAEVKKPGESLKISCKGSGYSFTSHWIGWVRQMPGKGLEWMGITDPGDSDTRYSPSFQGQVTISADKSISTAYLQWSSLKASDTAMYYCAREPRRWMTTETNGPYYFDNWGQGTLVTVSS
# VL: SYVLTQPPSVSVAPGKTARITCGGNNIGSKSVHWYQQKPGQAPVLVIYYDSDRPSGIPERFSGSNSGNTATLTISRVEAGDEADYYCQVWDSSSDNRVFGGGTKVTVL
# notes: full-length IgG; also called Ab 32
# B14: ADI-19424 (antibody, V domains shown)
# VH: EVQLLESGGGLVQPGGSLRLSCAASGFTVSSNYMSWVRQAPGKGLEWVSDIYSGGRTDYADSVKGRFTISRDNSKNTLDLQMNSLRAEDTAVYYCARETLGMDHWYFDLWGRGTLVTVSS
# VL: B13 VL with S1Q, Y2P, V3G, I47V, Y49D, S93T, N96H, R97P, V105L
# notes: full-length IgG
# B15: ADI-19422 (antibody, V domains shown)
# VH: not shown
# VL: B13 VL with S1Q, Y2P, I47V, Y49D, N96H, R97W, V105L
# notes: full-length IgG
# B16: ADI-14347 (antibody, V domains shown)
# VH: EVQLVESGGGLVKPGGSLRLSCAASGFTFRDYYMNWIRQAPGKGLEWVSDISASSSYTNYADSVKGRFTISRDNAKTSLYLQMNSLRAEDTAVYYCAREVVTAMGGYYFDYWGQGTLVTVSS
# VL: QSVVTQPPSVSGAPGQRVTISCTGSSSNIGAGYDVHWYQQLPGTAPKLLIYGNNNRPSGVPDRFSGSKSGTSASLAITGLQAEDEADYYCQSYDSSLSGSGVFGTGTKVTVL
# notes: full-length IgG; also called Ab 15
# B17: ADI-25549 (antibody, V domains shown)
# VH: QVQLVQSGGGLVKPGGSLRLSCAASGFTFSSYSMNWVRQAPGKGLEWVSSISSSSSYIYYADSVKGRFTISRDNAKNSLYLQMNSLRAEDTAVYYCARVSSGWYGGGAYYFDYWGQGTLVTVSS
# VL: B16 VL with N54S, G99A, S100L, G101Y
# notes: full-length IgG
# B18: ADI-19425 (antibody, V domains shown)
# VH: EVQLVESGGGLVKPGGSLRLSCAASGFTFSSYSMNWVRQAPGKGLEWVSSISSSSSYIYYADSVKGRFTISRDNAKNSLYLQMNSLRAEDTAVYYCARLGYCSGGSCHFDYWGQGTLVTVSS
# VL: B16 VL with S2P, V4L, N54S, S100F, G101Y, V109L
# notes: full-length IgG; also called Ab 140
# Molecular target: T1, RSV prefusion F (preF), subtype B (respiratory syncytial virus subtype B)
# T1 construct: also called Prefusion subtype B
# Assay: BLI, IgG
row,Binder,Kd [nM]
1,B1,98
2,B2,2.11
3,B3,0.925
4,B4,44.7
5,B5,3.32
6,B6,2.47
7,B7,0.306
8,B8,3.83
9,B9,0.586
10,B10,0.269
11,B11,5.26
12,B12,5.42
13,B13,61.6
14,B14,1.71
15,B15,10.8
16,B16,2.54
17,B17,28.8
18,B18,1.37

# Molecular target: T2, RSV postfusion F (postF), subtype A (respiratory syncytial virus subtype A, UniProt P03420 26-513)
# T2 construct: also called Postfusion subtype A; F deltaFP
# Assay: BLI
row,Binder,binding result
1,B1,no binding
2,B2,no binding
3,B3,no binding
4,B4,no binding
5,B5,no binding
6,B6,no binding
7,B7,no binding
8,B8,no binding
9,B9,no binding
10,B10,no binding
11,B11,no binding
12,B12,no binding
13,B13,no binding
14,B14,no binding
15,B15,no binding
16,B16,no binding
17,B17,no binding
18,B18,no binding

# Molecular target: RSV F on RSV subtype A virus (mKate-RSV A2) (respiratory syncytial virus A2, UniProt P03420 26-574)
# Assay: cell-based or functional assay
row,Binder,Neut IC50 subtype A [µg/mL]
1,B1,6.63
2,B2,0.1
3,B3,0.05
4,B4,18.6
5,B5,1.18
6,B6,0.55
7,B7,1.24
8,B8,0.33
9,B9,8.68
10,B10,3.94
11,B11,2.3
12,B12,10
13,B13,0.03
14,B14,0.08
15,B15,0.73
16,B16,0.11
17,B17,11.5
18,B18,0.02

# Molecular target: RSV F on RSV subtype B virus (mKate-RSV B 18537) (respiratory syncytial virus B 18537, UniProt P13843 26-574)
# Assay: cell-based or functional assay
row,Binder,Neut IC50 subtype B [µg/mL]
1,B1,1.94
2,B2,0.07
3,B3,0.07
4,B4,12.1
5,B5,1.14
6,B6,0.64
7,B7,0.88
8,B8,1.94
9,B9,1.2
10,B10,0.33
11,B11,0.87
12,B12,3.3
13,B13,2.39
14,B14,0.21
15,B15,1.9
16,B16,0.05
17,B17,6.02
18,B18,0.04
